According to article PMC7986998:

Molecular target: human ACE2-Fc (human) (UniProt Q9BYF1)
Test: ELISA

human ACE2-Fc (human), sequence (Q9BYF1 18-740): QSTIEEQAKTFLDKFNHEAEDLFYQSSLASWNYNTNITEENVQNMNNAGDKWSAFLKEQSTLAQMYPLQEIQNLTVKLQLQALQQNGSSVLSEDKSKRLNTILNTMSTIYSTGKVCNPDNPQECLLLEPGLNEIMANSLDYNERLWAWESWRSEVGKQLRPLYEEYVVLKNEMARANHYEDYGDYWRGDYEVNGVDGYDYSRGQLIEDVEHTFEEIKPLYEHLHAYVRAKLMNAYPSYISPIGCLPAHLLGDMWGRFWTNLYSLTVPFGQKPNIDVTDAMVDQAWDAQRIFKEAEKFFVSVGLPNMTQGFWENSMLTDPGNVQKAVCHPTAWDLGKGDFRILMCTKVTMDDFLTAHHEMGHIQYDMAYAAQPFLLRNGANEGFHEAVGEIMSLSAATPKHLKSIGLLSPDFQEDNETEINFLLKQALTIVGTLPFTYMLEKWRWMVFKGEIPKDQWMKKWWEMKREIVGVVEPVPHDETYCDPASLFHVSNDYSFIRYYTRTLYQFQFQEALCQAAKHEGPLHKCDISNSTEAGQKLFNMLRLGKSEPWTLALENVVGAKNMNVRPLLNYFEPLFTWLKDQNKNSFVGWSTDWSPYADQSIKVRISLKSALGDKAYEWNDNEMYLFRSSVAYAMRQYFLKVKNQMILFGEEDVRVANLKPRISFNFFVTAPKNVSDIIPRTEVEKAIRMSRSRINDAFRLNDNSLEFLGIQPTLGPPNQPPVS

Question: With “SARS-CoV S 2P ectodomain trimer (from UniProt P59594 14-1195) (domain or fragment)” as the substance, how does the EC50 read?
Answer: 4.11 nM
